B1: GP1_(GTOV)–Fc (Fc fusion)
chain: ELPSLCRVNNSYSLIRLSHNSNQALSVEYVDVHPVLCSSSPTILDNYTQCIKGSPEFDWILGWTIKGLGHDFLRDPRICCEPKKTTNAEFTFQLNLTDSPETHHYRSKIEVGIRHLFGNYITNDSYSKMSVVMRNTTWEGQCSN
B2: GP1_(SBAV)–Fc (Fc fusion)
chain: DHPTSCMVNHSTYYVHENKNATWCLEVSVTDVTLLMAEHDRQVLNNLSNCVHPAVEHRSRMVGLLEWIFRALKYDFNHDPTPLCQKQTSTVNETRVQINITEGFGSHGFEDTILQRLGVLFGSRIAFSNIQDLGKKRFLLIRNSTWKNQCEM

Biological target: stand-alone apical domain (sAD) designed from White-throated woodrat TfR1 (Neotoma albigula (White-throated …, N-linked glycan at Asn251 seen in the crystal)); two putative N-glycosylation sites (Asn204, Asn251), both partially glycosylated)
Assay: SPR

Row | Binder | Kd
1 | B1 | 360 nM
2 | B2 | 63 nM

— PMC6941993 (2020)
